Assay results: article PMC5581740

System: Cc1cn([C@H]2C[C@H](O)[C@@H](COP(=O)(O)OP(=O)(O)O[C@H]3O[C@H](C)[C@H](O)[C@H](N)[C@H]3O)O2)c(=O)[nH]c1=O
Assay: purified protein
Conditions: 5 mM N10-formyl-THF, 50 mM HEPPS pH 8.0, 0.20 uM enzyme

FdtF (Salmonella enterica)
Km: 100 ± 10 µM
kcat: 15.5 ± 0.8 s⁻¹
kcat/Km: 160000 ± 18000 M⁻¹ s⁻¹
